According to US20100043097:

Experiments:
[1] = target: GST tagged BRK1-S230A
[2] = target: GST-BRK1
Chain of GST-BRK1 (chain, as listed by the source): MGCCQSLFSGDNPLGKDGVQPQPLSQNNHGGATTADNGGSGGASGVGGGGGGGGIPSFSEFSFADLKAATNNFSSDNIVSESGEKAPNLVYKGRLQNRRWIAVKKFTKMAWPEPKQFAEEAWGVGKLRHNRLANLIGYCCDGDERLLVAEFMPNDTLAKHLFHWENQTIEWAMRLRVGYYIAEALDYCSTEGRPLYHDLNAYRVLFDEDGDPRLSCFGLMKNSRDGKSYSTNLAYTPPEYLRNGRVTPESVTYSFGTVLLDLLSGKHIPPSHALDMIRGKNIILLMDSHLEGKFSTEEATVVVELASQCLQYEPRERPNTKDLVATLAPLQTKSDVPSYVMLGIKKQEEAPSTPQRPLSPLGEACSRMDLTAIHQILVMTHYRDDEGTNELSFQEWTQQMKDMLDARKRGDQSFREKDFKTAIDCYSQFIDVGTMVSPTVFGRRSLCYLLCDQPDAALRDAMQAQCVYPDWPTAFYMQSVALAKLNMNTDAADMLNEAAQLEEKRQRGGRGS

B1: GST-BRI1-KD (protein)
chain: REMRKRRRKKEAELEMYAEGHGNSGDRTANNTNWKLTGVKEALSINLAAFEKPLRKLTFADLLQATNGFHNDSLIGSGGFGDVYKAILKDGSAVAIKKLIHVSGQGDREFMAEMETIGKIKHRNLVPLLGYCKVGDERLLVYEFMKYGSLEDVLHDPKKAGVKLNWSTRRKIAIGSARGLAFLHHNCSPHIIHRDMKSSNVLLDENLEARVSDFGMARLMSAMDTHLSVSTLAGTPGYVPPEYYQSFRCSTKGDVYSYGVVLLELLTGKRPTDSPDFGDNNLVGWVKQHAKLRISDVFDPELMKEDPALEIELLQHLKVAVACLDDRAWRRPTMVQVMAMFKEIQAGSGIDSQSTIRSIEDGGFSTIEMVDMSIKEVPEGKL
Q: With B1 as the protein, how does the “in vitro kinase assay (32P autoradiography), reduction of phosphorylation” value [1] read?
A: a S230A mutation reduced the phosphorylation by 82%

Q: And the “mass spectrometry of BRI1-phosphorylated BRK1” value [2]?
A: identified serine 230 of BRK1 as a BRI1 phosphorylation site
